This is an account of results in US8716246B2, “Azuvirin peptides” (The Regents of the University of California, priority 2011, dated 2014).

The structures appear in SMILES notation. Square brackets hold non-standard residues; d marks the D form. Peptide text beside a SMILES is read from it. * marks the point of attachment. Oic = O=C(O)[C@@H]1C[C@@H]2CCCC[C@@H]2N1; Cha = N[C@@H](CC1CCCCC1)C(=O)O; Tle = CC(C)(C)[C@H](N)C(=O)O; Nicotinoyl = O=C(c1cccnc1)*; Acm = CC(=O)NC*

The target in one data set is T1, rhEphB4 (Homo sapiens, UniProt P54760).
T1 construct: purchased R&D Systems, Inc., Minneapolis, Minn
T1 sequence (P54760 16-987): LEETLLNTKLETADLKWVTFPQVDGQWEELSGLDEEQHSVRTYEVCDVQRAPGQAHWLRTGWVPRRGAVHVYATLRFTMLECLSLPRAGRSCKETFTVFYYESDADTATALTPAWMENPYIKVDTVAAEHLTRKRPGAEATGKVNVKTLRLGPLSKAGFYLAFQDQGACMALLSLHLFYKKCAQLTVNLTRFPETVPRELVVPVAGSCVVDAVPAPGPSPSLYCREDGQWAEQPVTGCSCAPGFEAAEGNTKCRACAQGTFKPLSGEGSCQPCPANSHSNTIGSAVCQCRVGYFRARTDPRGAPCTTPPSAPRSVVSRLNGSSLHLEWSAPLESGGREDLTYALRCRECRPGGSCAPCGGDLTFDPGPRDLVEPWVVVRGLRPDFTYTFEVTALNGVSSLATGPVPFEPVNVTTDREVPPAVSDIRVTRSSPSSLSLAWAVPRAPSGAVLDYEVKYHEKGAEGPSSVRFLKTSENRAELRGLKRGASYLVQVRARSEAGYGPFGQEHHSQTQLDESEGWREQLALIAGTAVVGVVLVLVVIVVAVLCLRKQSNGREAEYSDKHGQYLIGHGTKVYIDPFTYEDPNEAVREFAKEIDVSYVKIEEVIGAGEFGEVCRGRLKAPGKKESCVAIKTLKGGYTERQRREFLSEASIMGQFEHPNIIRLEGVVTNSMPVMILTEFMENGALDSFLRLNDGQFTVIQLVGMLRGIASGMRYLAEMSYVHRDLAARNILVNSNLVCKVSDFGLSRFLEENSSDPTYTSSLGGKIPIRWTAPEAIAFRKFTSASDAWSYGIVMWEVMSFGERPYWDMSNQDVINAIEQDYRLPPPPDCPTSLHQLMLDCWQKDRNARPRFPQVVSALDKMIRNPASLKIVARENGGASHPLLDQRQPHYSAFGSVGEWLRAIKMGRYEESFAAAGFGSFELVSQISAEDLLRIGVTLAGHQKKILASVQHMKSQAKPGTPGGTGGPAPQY
In words: SPR binding to immobilized rhEphB4 (Biacore 3000). As to the method: Binding to selected ephrin receptors was measured by surface plasmon resonance on a Biacore3000 instrument. Commercially available ephrin receptors: EphA2, EphB2 and EphB4 (R&D Systems) were immobilized on a CM-5 chip by amine coupling and tested peptides were passed over a chip surface as analytes.
Binding studies. Binding studies were performed by surface plasmon resonance (SPR) on a BIAcore 3000 system (BiaCore AB, Piscataway, N.J.). BIAcore CM5 sensor chips were utilized in all experiments. Binding studies were performed in HBS-EP running buffer (pH=7.4) containing 10 mM HEPES, 150 mM NaCl, 3 mM EDTA, and 0.005% polysorbate 20. Commercially available ephrin receptors: EphA2, EphB2 and EphB4 (R&D Systems, Inc., Minneapolis, Minn.) were immobilized on a CM5 sensor chip using the amine coupling method. The chip was activated by mixing 400 mM N-ethyl-N-(3-dimethylaminopropyl)-carbodiimide hydrochloride and 100 mM N-hydroxysuccinimide. Residual reactive groups on the chip surface were blocked using 1.0 M ethanolamine/HCl (pH=8.5). The flow cell-1 chip, which served as a control, lacked immobilized protein but was treated with N-ethyl-N-(3-dimethylaminopropyl)-carbodiimide hydrochloride, N hydroxysuccinimide, and ethanolamine/HCl. Binding signals were corrected for nonspecific binding by subtracting the flow cell-1 signal (blank surface). To regenerate chip surfaces, bound ligands were removed with 10 mM HCl. Data were analyzed with BIAevaluation 4.1 software (Biacore, Piscataway, N.J.).

The nature of data set [1]: MultiTox-Fluor Multiplex Cytotoxicity Assay, LLC cells. Type of data set: cell-based, murine. Conditions: mouse, Lewis lung carcinoma (LLC) cells; 24 h co-culture; read-out: LD50, LLC cells. The protocol: Experiments were carried out using MultiTox-Fluor Multiplex Cytotoxicity Assay (Promega Corp., Madison, Wis.) as previously described. This assay simultaneously measures the number of live and dead cells in culture wells based on the activity of two proteases, one a marker of cell viability, and the other a marker of cytotoxicity, which yield products with different excitation and emission spectra. Briefly, for cytotoxicity experiments murine LCC (or RAW 264.7) cells were plated in a 96-well plate at a density of 1×10^4 cells/well in a total volume of 50 μl of culture media and treated with various concentrations of tested peptides (50 μl of 0-400 μM peptides in culture media). Cells' viability was assessed 24 h later by MultiTox-Fluor Multiplex Cytotoxicity Assay (incubation time 1 h). For cell viability experiments, LCC cells were plated in a 96-well plate at a density of 5×10^3 cells/well in a total volume of 50 μl of culture media and treated with various concentrations of tested peptide (50 μl of 0-200 μM peptide in culture media) for 1 hour prior to 0, 2, 4 Gy irradiation. Cell viability was assessed 72 h later by MultiTox-Fluor Multiplex Cytotoxicity Assay (incubation time 1 h). All experiments were carried out in triplicates.

Data set [2] can be described thus: Observation of toxicity during the in vivo mouse studies. Further details: species or system C57BL/6 mice. The conditions noted are these: 25 mg/kg IP. The protocol:
Animal experiments. C57BL/6 gnotobiotic mice (8 weeks old) were obtained from the UCLA AALAC accredited Department of Radiation Oncology Facility and intravenously injected with 5×10^5 cells of syngeneic LLC. Various treatments were initiated 4 days later, after cancer engraftment. In general, each animal received intraperitoneally a total of 500 μg (˜25 mg/kg) of peptide (or equimolar amount of nicotinamide) in 4 daily doses 60 min before local thoracic irradiation (0 or 4 Gy, total dose: 4.4=16 Gy) that was delivered using an Atomic Energy of Canada cesium gamma irradiator with a dose rate of approximately 0.6 Gy/min with the rest of the body shielded. Prior to irradiation animals were anesthetized by intraperitoneal injection of ketamine/xylazine mixture. Animals were sacrificed on the 14th day of the experiment and lung tumor nodules were counted. All experiments were approved by the UCLA Animal Care and Use Committee and conformed to local and national guidelines.
C57BL/6 mice (8 weeks old) were injected subcutaneously with 1.0×10^6 cells of syngeneic LLC (leg). After 10 days, palpable tumors of approximately 5 mm diameter appeared and treatment was initiated. […] Tumor size was assessed every two days and animals sacrificed as necessary according to the UCLA Animal Care guidelines.

By Kd is commonly meant the equilibrium constant for the complex coming apart. A low value points to a tighter complex.

The compound `CC(=O)NCSC[C@H](NC(=O)[C@H](CC1CCCCC1)NC(=O)[C@H](CC1CCCCC1)NC(=O)[C@@H](CCCCNC(=O)c1cccnc1)NC(=O)[C@@H](N)Cc1ccc(O)cc1)C(=O)N[C@H](C(=O)N[C@@H](CC1CCCCC1)C(=O)N1[C@H](C(=O)N[C@H](CCCNC(=N)N)C(=O)N[C@@H](Cc2c[nH]cn2)C(=O)N[C@@H](CCCNC(=N)N)C(=O)N[C@H](C(=O)N[C@@H](CC2CCCCC2)C(=O)N[C@@H](CSCNC(C)=O)C(=O)N[C@H](CCCCN)C(N)=O)[C@@H](C)O)C[C@@H]2CCCC[C@@H]21)C(C)(C)C` [AzV36-NicL, YkNic-Cha-Cha-Cam-Tle-Cha-Oic-rHRT-Cha-Cam-k-CONH] (H-Y[dK](Nicotinoyl)[Cha][Cha]C(Acm)[Tle][Cha][Oic][dR]HRT[Cha]C(Acm)[dK]-NH2) registered a Kd on rhEphB4 of 0.00583 ± 0.0014 µM. Further, the CC50 at 24 h in data set [1] was determined as 17 ± 2.84 µM. For the same compound, in data set [2], the “toxic effect of the injections in vivo” value is “no obvious toxic effect”.
